# Test results: patent US20260098102A1 (NATIONAL UNIVERSITY CORPORATION KOBE UNIVERSITY, published 2026)
# Residue numbers refer to the chain shown, from its start.
# T1: cSIRPA_ECD (cynomolgus monkey)
# T1 construct: Secreted recombinant protein
# T1 chain: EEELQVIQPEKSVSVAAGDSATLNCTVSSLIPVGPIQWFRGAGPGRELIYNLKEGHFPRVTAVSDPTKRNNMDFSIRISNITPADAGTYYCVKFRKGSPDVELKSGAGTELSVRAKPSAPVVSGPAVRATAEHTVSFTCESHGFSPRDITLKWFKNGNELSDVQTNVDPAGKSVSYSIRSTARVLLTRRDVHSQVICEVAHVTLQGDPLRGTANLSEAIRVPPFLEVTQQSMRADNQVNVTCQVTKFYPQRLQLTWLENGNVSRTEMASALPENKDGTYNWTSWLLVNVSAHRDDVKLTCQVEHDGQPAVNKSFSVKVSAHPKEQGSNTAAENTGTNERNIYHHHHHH
# T2: mouse SIRPA variant hmSIRPA_Δ0 (mouse (with human residues), UniProt P97797 35-513)
# T2 construct: FLAG-tagged (pFLAG V5-DEST), on 293α cells
# T2 chain: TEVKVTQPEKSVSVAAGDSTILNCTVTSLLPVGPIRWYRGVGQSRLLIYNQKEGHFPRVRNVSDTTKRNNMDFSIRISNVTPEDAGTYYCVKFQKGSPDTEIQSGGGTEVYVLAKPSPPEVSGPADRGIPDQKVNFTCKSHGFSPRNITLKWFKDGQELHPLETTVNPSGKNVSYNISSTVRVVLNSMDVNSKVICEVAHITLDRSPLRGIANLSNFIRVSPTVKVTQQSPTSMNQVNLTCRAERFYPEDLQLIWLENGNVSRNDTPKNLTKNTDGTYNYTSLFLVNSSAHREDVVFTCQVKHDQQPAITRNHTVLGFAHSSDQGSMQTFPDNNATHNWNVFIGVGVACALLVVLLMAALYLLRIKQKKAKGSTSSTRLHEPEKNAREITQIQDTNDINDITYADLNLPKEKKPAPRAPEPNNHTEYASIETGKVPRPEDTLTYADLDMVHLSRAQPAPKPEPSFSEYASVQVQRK
# B1: humanized anti-SIRPA antibody hD13_H1L3 (antibody, human IgG4 S228P, kappa, F234A L235A, V domains shown)
# VH: QVQLVESGGGVVQPGRSLRLSCAASGFTFSDYGMIWVRQAPGKGLEWVASISSSSSYIYYADSVKGRFTISRDNSKNRLYLQMNSLRAEDTAVYYCARRYYGFNYPFDYWGQGTMVTVSS
# VL: DTQLTQSPSSLSASVGQRVTITCGASKSVRTYMHWYQQKPGKQPKLLIYSASNLEAGVPSRFSGSGSGTDFTLTISSLQPEDFATYYCQQSNEPPYTFGQGTKLEIKR
# notes: hH1 heavy chain (IgG4proFALA) and hL3 kappa light chain; also called hD13_HIL3; HIL3 antibody
# B2: humanized anti-SIRPA antibody hD13_H2L3 (antibody, human IgG4 S228P, kappa, F234A L235A, V domains shown)
# VH: B1 VH with Q1E, R78T
# VL: B1 VL
# notes: hH2 heavy chain (IgG4proFALA) and hL3 kappa light chain; also called H2L3 antibody
# B3: humanized anti-SIRPA antibody hD13_H2L2 (antibody, human IgG4 S228P, kappa, F234A L235A, V domains shown)
# VH: B1 VH with Q1E, R78T
# VL: B1 VL with D1A, T2I, Q43A
# notes: hH2 heavy chain (IgG4proFALA) and hL2 kappa light chain; also called H2L2 antibody
# B4: humanized anti-SIRPA antibody hD13_H1L4 (antibody, human IgG4 S228P, kappa, F234A L235A, V domains shown)
# VH: B1 VH
# VL: DTVLTQSPDSLAVSLGQRATINCGASKSVRTYMHWYQQKPGQQPKLLIYSASNLEAGVPSRFSGSGSGTDFTLTISSLQAEDVAVYYCQQSNEPPYTFGQGTKVEIKR
# notes: hH1 heavy chain (IgG4proFALA) and hL4 kappa light chain; also called hD13_HIL4; hD13_HIL4h
# B5: human chimeric anti-SIRPA antibody cD13 (antibody, human IgG4 S228P, kappa, F234A L235A, V domains shown)
# VH: EVQLVESGGGLVQPGRSLKLSCLASGFTFSDYGMIWVRQAPGKGLEWVASISSSSSYIYYADTVKGRFTISRENAKNTLFLHMTSLRSEDTALYYCARRYYGFNYPFDYWGQGVMVTVSS
# VL: DTVLTQSPALAVSLGQRVTISCGASKSVRTYMHWYQQKSGQQPKLLIYSASNLEAGVPSRFSGSGSGTDFTLTIDPVEADDIANYYCQQSNEPPYTFGAGTKLELKR
# notes: Human IgG4proFALA heavy chain, human kappa light chain; also called cD13 (IgG4pf); human chimeric antibody D13
# Molecular target: T1, cSIRPA_ECD
# Assay: SPR Biacore T200, antibody captured on anti-human IgG (Fc), monkey SIRPA_ECD as analyte, 1:1 model
# Protocol: The dissociation constants of hD13_HIL3, hD13_HIL4, hD13_H2L2, and hD13_H2L3 prepared in Example 7 against human SIRPA_V1_IgV and monkey SIRPA_ECD prepared in Example 1 were measured by a capture method of capturing a humanized antibody as a ligand to an Anti-Human IgG (Fc) antibody immobilized using Human Antibody Capture Kit (GE Healthcare Bioscience Corp.) and measuring an antigen as an analyte, using Biacore T200 (GE Healthcare Bioscience Corp.). HBS-EP+ (GE Healthcare Bioscience Corp.) was used as a running buffer, and CM5 (GE Healthcare Bioscience Corp.) was used as a sensor chip. Onto the chip, 1 μg/mL humanized antibody was added at 10 μL/min for 60 seconds, and then a serially diluted solution (0.5 to 8 μg/mL) of human SIRPA protein or a serially diluted solution (1 to 16 μg/mL) of monkey SIRPA protein was added as an antigen at a flow rate of 30 μL/min for 120 seconds, and subsequently the dissociation phase for 600 seconds was monitored. As a regenerant, 3 M magnesium chloride (GE Healthcare Bioscience Corp.) was added at a flow rate of 20 μL/min for 30 seconds. For data analysis, a binding rate constant (ka), a dissociation rate constant (kd), and a dissociation constant (KD; KD=kd/ka) were calculated using a 1:1 binding model.
row,Kd,Binder
1,0.0386 µM,B1
2,0.0542 µM,B2
3,0.162 µM,B3
4,0.0839 µM,B4

# Molecular target: T3, human SIRPA_V6 (human, UniProt P78324 31-504)
# T3 construct: FLAG-tagged (pFLAG V5-DEST), on 293α cells; also called human SIRPA Variant 6
# T3 sequence (P78324 31-504 S105P limits assumed): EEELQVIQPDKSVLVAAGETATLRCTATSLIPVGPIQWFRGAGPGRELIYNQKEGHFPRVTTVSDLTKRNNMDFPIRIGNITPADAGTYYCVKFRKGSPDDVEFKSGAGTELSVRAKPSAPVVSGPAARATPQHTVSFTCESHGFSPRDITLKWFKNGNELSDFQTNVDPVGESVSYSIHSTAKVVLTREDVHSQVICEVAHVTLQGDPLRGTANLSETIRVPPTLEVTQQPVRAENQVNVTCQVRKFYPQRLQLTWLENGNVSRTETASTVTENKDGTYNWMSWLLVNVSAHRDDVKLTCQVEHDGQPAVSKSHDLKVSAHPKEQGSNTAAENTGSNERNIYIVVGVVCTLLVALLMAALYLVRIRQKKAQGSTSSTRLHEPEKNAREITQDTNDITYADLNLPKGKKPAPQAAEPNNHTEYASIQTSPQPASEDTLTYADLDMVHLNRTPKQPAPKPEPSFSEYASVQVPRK
# Assay: cell-based ELISA on 293α cells expressing FLAG-tagged SIRPA_V6; Abs 490 normalized to FLAG tag [ii]
# Protocol: (§1) The 293a cells, described in Example 1)-6, were prepared at 5× 10⁵ cells/mL in a 10% FBS-containing DMEM medium. pFLAG V5-DEST-SIRPA_V1-V10, pFLAG V5-DEST-monkey SIRPA, pFLAG V5-DEST-mouse SIRPA, or pFLAG V5-DEST was introduced into the cells using Lipofectamine LTX (Invitrogen), and 100 μL each was aliquoted to a 96-well plate (Corning Incorporated) and cultured overnight in a 10% FBS-containing DMEM medium at 37° C. under a 5% CO₂ condition. The obtained introduced cells were used for cell-based ELISA in a state that they adhered. After the culture supernatant was removed, 50 μL per well of hD13_HIL3, hD13_HIL4h, hD13_H2L2, hD13_H2L3, or cD13 prepared in Examples 6 and 7 or a control antibody was added to each of various SIRPA genes-introduced cells at a final concentration of 0 to 10,000 ng/ml, and the mixture was allowed to stand at 4° C. for one hour. Thereafter, binding to human SIRPA was evaluated in the same manner as in Example 5-1.
row,EC50 (read off the curve),Binder
1,~0.04 mg/L,B5
2,~0.04 mg/L,B1
3,~0.04 mg/L,B2
4,~0.04 mg/L,B3
5,~0.04 mg/L,B4

# Molecular target: T4, human SIRPA_V8 (human, UniProt P78324 31-504)
# T4 construct: FLAG-tagged (pFLAG V5-DEST), on 293α cells; also called human SIRPA Variant 8
# Assay: cell-based ELISA on 293α cells expressing FLAG-tagged SIRPA_V8; Abs 490 normalized to FLAG tag [iv]
# Protocol: as §1
row,EC50 (read off the curve),Binder
1,~0.04 mg/L,B5
2,~0.04 mg/L,B1
3,~0.04 mg/L,B2
4,~0.04 mg/L,B3
5,~0.04 mg/L,B4

# Molecular target: T5, human SIRPA_V5 (human, UniProt P78324 31-504)
# T5 construct: FLAG-tagged (pFLAG V5-DEST), on 293α cells; also called human SIRPA Variant 5
# T5 sequence (P78324 other isoform, or with tags, fused parts or gaps limits assumed): as the sequence (P78324 31-504 S105P limits assumed) above, with S12F, P75S counted along it
# Assay: cell-based ELISA on 293α cells expressing FLAG-tagged SIRPA_V5; Abs 490 normalized to FLAG tag [i]
# Protocol: as §1
row,EC50 (read off the curve),Binder
1,~0.04 mg/L,B5
2,~0.04 mg/L,B1
3,~0.04 mg/L,B2
4,~0.04 mg/L,B3
5,~0.04 mg/L,B4

# Molecular target: T2, mouse SIRPA variant hmSIRPA_Δ0
# Assay: cell-based ELISA on 293α cells expressing FLAG-tagged hmSIRPA_Δ0; Abs 490 normalized to FLAG tag [i]
# Protocol: After the culture supernatant of 293α cells into which the pFLAG V5-DEST-hmSIRPA_Δ0, Δ1, and Δ2 expression vector prepared in 2)-1-2-2 was introduced and the pFLAG V5-DEST-introduced 293α cells was removed, 50 μL per well of four different D13 humanized anti-human SIRPA antibodies and a chimeric anti-human SIRPA antibody diluted with 5% FBS-containing PBS to a final concentration of 10,000 ng/mL were added to these cells, and the mixture was allowed to stand at 4° C. for one hour. Further, 50 μL per well of an anti-FLAG M2 antibody (SIGMA) diluted with 5% FBS-containing PBS to a final concentration of 10,000 ng/mL was added to a well for detecting expression of each SIRPA construct, and the mixture was allowed to stand at 4° C. for one hour. Thereafter, binding to each construct was evaluated in the same manner as in the evaluation of the binding activity of the human SIRPA. Binding of anti-human SIRPA antibodies to each construct was standardized by expression of the FLAG tag.
row,binding result,Binder
1,binds,B5
2,binds,B1
3,binds,B2
4,binds,B3
5,binds,B4
